Among the data in patent US20150297672A1, “Alpha- and gamma-MSH analogues” (TXP Pharma GmbH, priority 2014, published 2015) are EC50, cAMP production, Emax (max efficacy expressed as percent of αMSH), cAMP production and maximal efficacy (Emax), cAMP production values, retold here.

The experiment deals with human melanocortin receptor type 1 (MC1r) (human) (UniProt Q01726). As to the kind of experiment: cell-based or functional assay.
Chain of human melanocortin receptor type 1 (MC1r) (human) (Q01726 whole entry): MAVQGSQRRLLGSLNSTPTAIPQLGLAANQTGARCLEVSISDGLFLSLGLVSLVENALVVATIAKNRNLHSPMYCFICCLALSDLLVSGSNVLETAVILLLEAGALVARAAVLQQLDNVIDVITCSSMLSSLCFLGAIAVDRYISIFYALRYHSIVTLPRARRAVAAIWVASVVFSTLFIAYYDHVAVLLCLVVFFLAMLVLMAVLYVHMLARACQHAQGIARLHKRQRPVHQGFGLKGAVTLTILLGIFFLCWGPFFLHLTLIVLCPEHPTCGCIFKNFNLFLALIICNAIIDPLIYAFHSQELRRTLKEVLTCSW

B1: Ac(Lys)6-NDP-αMSH (Ac(Lys)6-Ser-Tyr-Ser-Nle Glu-His-(D-Phe)-Arg-Trp-Gly-Lys-Pro-Val-NH2) (peptide)
peptide: KKKKKKSYSXEHFRWGKPV
modifications: N-terminal acetyl; Nle (norleucine) at position 10 (written X); D-Phe at position 13; C-terminal amide
Consider B1, for which the EC50, cAMP production is 1.35 nM and the Emax (max efficacy expressed as percent of αMSH), cAMP production was 62 % of αMSH.

B2: Ac(Lys)6-αMSH (Ac(Lys)6-Ser-Tyr-Ser-Met-Glu-His-Phe-Arg-Trp-Gly-Lys-Pro-Val-NH2; Ac(Lys)6-SEQ ID NO:2) (peptide)
peptide: Ac-KKKKKKSYSMEHFRWGKPV-NH2
On to B2, for which the EC50, cAMP production worked out at 2.12 nM; the Emax (max efficacy expressed as percent of αMSH), cAMP production was 72 % of αMSH; the maximal efficacy (Emax), cAMP production was 3 nM.
